Experimental data as given in the supplement of paper PMC9170038.

System: MS2 coat protein
Experiment: apparent KD of MS2 coat protein; designed switch direction (-1 OFF switch, 1 ON switch): -1; higher = weaker reporter binding
Method in brief: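 Designed RNA switches with common flanks were transcribed on Illumina chips by stalled E. coli RNA polymerase and titrated with SNAP-549-labelled MS2 coat protein, from 0.7 or 1.5 nM doubling to 3 µM, in Tris-HCl pH 7.5 buffer with KCl, MgCl2, BSA, DTT, tRNA and Tween-20. Steps lasted 0.8–1.5 h (lowest) to 10–20 min (highest). Titrations ran without input, with 200 uM small-molecule ligand, or with an oligonucleotide input. Normalised cluster fluorescence was curve-fitted, and apparent KD is the per-design median over clusters.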

[1] = input ligand: microRNA oligo, concentration not stated
[2] = Eterna round: R95, input ligand: FMN 200 uM
[3] = Eterna round: R95, input ligand: microRNA oligo, concentration not stated
[4] = Eterna round: R95, input ligand: none

Sequence	apparent KD of MS2 coat protein (input ligand: FMN 200 uM) [nM]	apparent KD of MS2 coat protein (input ligand: none) [nM]	other results
CCCAGUUAGUGAGGAUAUCUUACAUGAGGAUCACCCAUGUAAUAAAUGAGGAUUUCGGGUGUCUAAGAGAAGGCACGGAUAGGC [Ostracism 25 - Jieux - Exclusion NG 2] (Eterna round: R96, puzzle: Exclusion NG 2)	27.1	27	apparent KD of MS2 coat protein [1]: 16.7 nM
CCCAUGUCAGGAUAUCUAAGAGAGGAUCAGCCCUCUCCUCCGGAGAAGGGACAUGAGGAUCACCCAUGUAAAAC [Zasorequ] (puzzle: Exclusion 4)	–	–	apparent KD of MS2 coat protein [2]: 30.5 nM; apparent KD of MS2 coat protein [3]: 145 nM; apparent KD of MS2 coat protein [4]: 204 nM
CCCAUGUCAGGAUAUUAAUUGAGCAGAAAGCCCUGUUCACUUGAGAAGGGACAUGAGGAUCACCCAUGUAAAAC [Belexeedte] (Eterna round: R97, puzzle: Exclusion 4)	19.2	507	–
CCCGAGUUAGGAUAUAAACCAAAGUAACCAGCAGCUUAGCUUUAGAAGGAACAUGAGGAUCACCCAUGUGGUCU [Eternabot (L2) Solution 70] (Eterna round: R97, puzzle: Exclusion 4)	119	107	–
CCCGUGUUAGGAUAUACGGCACACCCGCCAGCGGGUAUAUAGUAGAAGGAACAUGAGGAUCACCCAUGUAUAGC [Sobiza] (puzzle: Exclusion 4)	–	–	apparent KD of MS2 coat protein [3]: 15.6 nM
CCCUCACAUGAGGAUCACCCAUGUCAGGAUAUCUCAGUGCAUCCACACGGACGCAUCAAGAGAAGGGACAAAAC [Ququ] (Eterna round: R97, puzzle: Exclusion 1)	27.8	18.4	–
CCCUCACAUGAGGAUCACCCAUGUUAGGAUAUGGGAGGUACCUGCGUGAGCGCACCACCCAGAAGGGACCAGGC [Eternabot (L2) Solution 4] (Eterna round: R97, puzzle: Exclusion 1)	130	159	–
CCGAAACAUGAGGAUCACCCAUGUCAGGAUAUUCCAAAAUCGUCGAAAGACGAUAACAGAAGAAGGGACAUCGG [Fiskxlusion 1 - Jieux - Exclusion 1] (Eterna round: R97, puzzle: Exclusion 1)	93.7	58	–
CCGAAUAUGCAGGAUAUCGUAUCGGAGACGAUACGAGAAGGGCAAACAUGAGGAUCACCCAUGUUCCUUAACGG [Mat - Exclusion 6 - Eli Mod - D75] (puzzle: Exclusion 6)	–	–	apparent KD of MS2 coat protein [3]: 15.9 nM
CCGACGUGAGGAUAUCCAUCUGGAUCAGACAAGAUCCUGAUGGAGAAGGCACAUGAGGAUCACCCAUGUUACGG [Mat - Exclusion 4 - Eli Mod - D59] (Eterna round: R97, puzzle: Exclusion 4)	738	412	–
CCGAUCAGUGUCAGGAUAUCUACAGGACUGCCUCGAGAGAAGGGACAUGAGGAUCACCCAUGUACCCGGGCAAG [BmEX4 B.2] (Eterna round: R97, puzzle: Brourd's mod of Exclusion 4)	15	12.8	–
CCGAUGUCAGGAUAUAGCGGUCGCUGCCACGGUGGAGUCUGCUAGAAGGGACAUGAGGAUCACCCAUGUCGAAC [Eternabot (Original) Solution 49] (Eterna round: R97, puzzle: Exclusion 4)	57.7	23.4	–
CCGAUGUCAGGAUAUCGUGCAUACAACGAAAGUUCUAUGUGCGAGAAGGGACAUGAGGAUCACCCAUGUUACGG [Omei Ex4 A2] (Eterna round: R97, puzzle: Exclusion 4)	131	465	–
CCGCUACAUGAGGAUCACCCAUGUCAGGAUAUCGUACGUUCGUCGAUAGACGAUCGUACGAGAAGGGUGUGCGG [Mat - Exclusion 1 - Eli Mod - D36] (Eterna round: R97, puzzle: Exclusion 1)	81.4	139	–
CCGCUGUGAGGAUAUUAGUAGUAGUCAGAAAAGACUAUUACUGAGAAGGCACAUGAGGAUCACCCAUGUUGCGG [Mat - Exclusion 4 - Eli Mod - D48] (Eterna round: R97, puzzle: Exclusion 4)	33.9	38.2	–
CCGGAAAGGAAGGAUAUGCUAGACGAAAGUCUAGCAGAAGGUCCUACAUGAGGAUCACCCAUGUGGUCCUCCGG [Eli x6 4.06] (Eterna round: R97, puzzle: Exclusion 6)	298	1470	–
CCGGAAAUACAGGAUAUAGGAGUCGAUAGACUCCUAGAAGGGUAUACAUGAGGAUCACCCAUGUGUCCUACCGG [Fiskers Ex 6 - 70] (puzzle: Exclusion 6)	–	–	apparent KD of MS2 coat protein [3]: 22.8 nM
CCGGAACAUGAGGAUCACCCAUGUCAGGAUAUCUCAAAAUCGUCGAAAGACGAUAACAAGAGAAGGGACACCGG [Eli x1 4.30] (Eterna round: R97, puzzle: Exclusion 1)	20.9	16.4	–
CCGGAAGUACAGGAUAUCGUAACGGAAACGUUACGAGAAGGGUAUACAUGAGGAUCACCCAUGUGUCCUACCGG [Mat - Exclusion 6 - Eli Mod - D93] (puzzle: Exclusion 6)	–	–	apparent KD of MS2 coat protein [3]: 22.6 nM
CCGGAAUUGGAGGAUAUAGGAGUCGAUAGACACCUAGAAGGUCAGACAUGAGGAUCACCCAUGUGUCCUACCGG [Fiskers Ex 6 - 87] (puzzle: Exclusion 6)	–	–	apparent KD of MS2 coat protein [2]: 19.9 nM; apparent KD of MS2 coat protein [3]: 18.3 nM; apparent KD of MS2 coat protein [4]: 17.8 nM
CCGGCGGUAGGAUAUACAAUUGUAAAAGGCAGGUGGUGUCAACAUGAGGAUCACCCAUGUAGAAGGACCUUAAA [EX2 C.26] (Eterna round: R97, puzzle: Exclusion 2)	38.4	22.4	–
CCGGCUUAGGAGGAUAUCAGAGUCGAAAGACUCUGAGAAGGCCUAACAUGAGGAUCACCCAUGUGUCCUACCGG [Mod of Eli 7 - Jieux - Exclusion 6] (Eterna round: R97, puzzle: Exclusion 6)	81.5	25.1	–
CCGGUUGGCGCAGGAUAUACAUGAGGAUCACCCAUGUUCAUGAGCAUCAGCCAUGAGUUUUUGUUGUAGAAGGGUGGCCCGGCC (Eterna round: R96, puzzle: Exclusion NG 2)	19.6	23.5	apparent KD of MS2 coat protein [1]: 15.6 nM
CCGUCGAUAGGAUAUACUCCAAGCGAUGGGUGAACCUUUGGACUUGAGGAUCACCCAAGUAGAAGGAUUGACUU [Aorbete] (Eterna round: R97, puzzle: Exclusion 2)	122	71	–
CCUACUUACUAGGAUAUCAGAGUCGAAAGACUCUGAGAAGGAGUAACAUGAGGAUCACCCAUGUGUCCUAUAGG [Mod of Eli 11 - Jieux - Exclusion 6] (Eterna round: R97, puzzle: Exclusion 6)	52.2	24.2	–
CCUAGACAUGAGGAUCACCCAUGUGAGGAUAUGAUGCGAAUAAAGAAAGAAGAAAGCAUCAGAAGGCACAUAUG [Fiskers Ex 1 - 2] (puzzle: Exclusion 1)	–	–	apparent KD of MS2 coat protein [2]: 130 nM; apparent KD of MS2 coat protein [3]: 41.2 nM; apparent KD of MS2 coat protein [4]: 49.4 nM
